Measured values published in publication PMC3222324, “PEGylating a bacteriophage endolysin inhibits its bactericidal activity” (AMB Express, 2011).

Biological target: the molecule itself
Assay: non-reducing SDS-PAGE; purified enzyme, not reduced; 37 kDa and 74 kDa bands (Figure 1, lane 2)

B1: Cpl-1^C45S;D194C (enzyme, pneumococcal phage, UniProt P15057 1-339, looked up)
chain: MVKKNDLFVDVSSHNGYDITGILEQMGTTNTIIKISESTTYLNPSLSAQVEQSNPIGFYHFARFGGDVAEAEREAQFFLDNVPMQVKYLVLDYEDDPSGDAQANTNACLRFMQMIADAGYKPIYYSYKPFTHDNVDYQQILAQFPNSLWIAGYGLNDGTANFEYFPSMDGIRWWQYSSNPFDKNIVLLDDEEDCKPKTAGTWKQDSKGWWFRRNNGSFPYNKWEKIGGVWYYFDSKGYCLTSEWLKDNEKWYYLKDNGAMATGWVLVGSEWYYMDDSGAMVTGWVKYKNNWYYMTNERGNMVSNEFIKSGKGWYFMNTNGELADNPSFTKEPDGLITVA
notes: Cpl-1, pneumococcal phage lysin (endolysin); gene originally carried on plasmid pJML6; expected 37 kDa band; Purified preparation holds the 37 kDa monomer and a 74 kDa disulfide-linked dimer; construct described in Resch et al., 2011; source: E. coli DH5α, purified (DEAE-Sepharose, eluted with choline)
Question: For B1, which “stoichiometry N” value is on record?
Answer: The value was 2.
